Structures can show the parent of a compound that is named as a salt.
Experiments:
[1] = system: Staphylococcus aureus strain MW2; assay: Community-acquired MRSA mouse pneumonia model, therapeutic; type: in vivo; settings: 1 mg into tail vein three days after nasal infection with 4×10^8 cells MW2; lungs five days after infection; BALB/c mice; compared to PBS group; Wilcoxon rank sum test; FIGS. 10 and 11
Method: The Staphylococcus aureus strain MW2 was nasally administered, at 4×10^8 cells/40 μL PBS, to female 7-week-old BALB/c mice to allow the bacteria to infect the lungs. Three days later, 0.2 mL of a test sample (PBS, 1 mg anti-Staphylococcus antibody, 1 mg mouse IgG, 1 mg vancomycin hydrochloride (VCM)) was administered into the tail veins.
Five days after the Staphylococcus aureus administration (two days after the test sample administration), the lungs were extirpated, homogenized, and the resulting suspensions were applied to mannitol salt agar plates. They were cultured for 36 hours at 37° C. The number of colonies that appeared was counted, and was used as the number of lung infecting bacteria.

[2] = system: Staphylococcus aureus (protein A knock-out OS2 strain); assay: Staphylococcus aureus solid phase Cell-ELISA (live cells immobilized); type: binding; settings: purified antibody; A405; FIG. 2
Method: In order to detect antibodies actually capable of binding to an infectious Staphylococcus capable of growth, the binding of the anti-Staphylococcus antibodies was measured using Staphylococcus aureus solid phase Cell-ELISA in which live cells were immobilized onto a solid phase.
A protein A knock-out OS2 strain was grown in stationary culture for 16 hours at 30° C. in TSB, collected by centrifugation, washed three times using Dulbecco's phosphate buffered saline (-) (hereinafter “PBS”), and adjusted to a concentration of about A600=0.1.
This was dispensed at 100 μL for each well of a 96-well ELISA plate (Nunc, Maxisorp), and the well was left standing for 6 hours at 4° C. to coat the cells. After washing three times with PBS, 300 μL of 1% rabbit serum/PBS was added to each well, and the well was left standing for 16 hours at 4° C. to perform blocking. Furthermore, after washing three times with 0.05% Tween 20/PBS, 100 μL/well of an immunized mouse serum or hybridoma culture supernatant was added to each well, and the well was left standing for 2 hours at 30° C. After washing three times with 0.05% Tween 20/PBS again, 100 μL/well of a goat HRP-labelled F(ab′)2 anti-mouse IgG+IgM (BioSource) or a goat HRP-labelled F(ab′)2 anti-mouse IgG (γ) (KPL) was added as the secondary antibody to each well, and the well was left standing for 2 hours at 30° C. After washing three times with 0.05% Tween 20/PBS, 100 μL/well of ABTS was added to each well as the substrate to allow color to develop, and photometry at A405 was performed using a microplate reader to measure the amount of anti-Staphylococcus antibodies.
The binding affinity between an anti-Staphylococcus antibody and a Staphylococcus was examined by ELTSA reactivity.

[3] = system: Staphylococcus aureus strain MW2; assay: Community-acquired MRSA mouse sepsis model; type: in vivo; settings: 1 mg antibody intraperitoneal with 8×10^8 cells MW2; female BALB/c mice; compared to PBS-administered group; Fisher's exact test; FIGS. 4 and 5
Method: (§1) The Staphylococcus aureus strain MW2, at 8×10^8 cells/0.5 mL PBS, and 0.2 mL of a test substance (PBS, 1 mg anti-Staphylococcus antibody, 1 mg mouse IgG) were administered to the peritoneal cavities of female 7-week-old BALB/c mice, and the number of surviving mice was determined.

[4] = system: Staphylococcus aureus strain MW2; assay: Community-acquired MRSA mouse pneumonia model, preventive; type: in vivo; settings: 1 mg into tail vein one hour before nasal infection with 4×10^8 cells MW2; lungs four days after infection; BALB/c mice; compared to PBS group; Wilcoxon rank sum test; FIGS. 8 and 9
Method: A 0.2 mL portion of a test sample (PBS, 1 mg anti-Staphylococcus antibody, 1 mg vancomycin hydrochloride (VCM)) was administered into the tail vein, and one hour after the administration, the Staphylococcus aureus strain MW2 was nasally administered at 4×10^8 cells/40 μL PBS to female 7-week-old BALB/c mice to infect the lungs. Four days after the infection, the lungs were extirpated, suspended using a homogenizer, applied to mannitol salt agar plates, and cultured for 36 hours at 37° C. The number of colonies that appeared was counted, and was defined as the number of lung infecting bacteria.

[5] = system: Staphylococcus aureus strain VRS1; assay: Highly vancomycin-resistant MRSA mouse sepsis model; type: in vivo; settings: 1 mg antibody intraperitoneal with 2-3×10^9 cells VRS1; female BALB/c mice; compared to PBS-administered group and VCM-administered group; Fisher's exact test; FIG. 7
Method: as §1, with “VRS1,” for “MW2,”, “2-3×10^9” for “8×10^8”, “sample” for “substance”, “IgG, 1 mg vancomycin hydrochloride (VCM))” for “IgG)”

CN[C@H](CC(C)C)C(=O)N[C@H]1C(=O)N[C@@H](CC(N)=O)C(=O)N[C@H]2C(=O)N[C@H]3C(=O)N[C@H](C(=O)N[C@H](C(=O)O)c4cc(O)cc(O)c4-c4cc3ccc4O)[C@H](O)c3ccc(c(Cl)c3)Oc3cc2cc(c3O[C@@H]2O[C@H](CO)[C@@H](O)[C@H](O)[C@H]2O[C@H]2C[C@](C)(N)[C@H](O)[C@H](C)O2)Oc2ccc(cc2Cl)[C@H]1O [VCM, vancomycin hydrochloride, reference compound]
number of lung infecting bacteria (therapeutic) [1]: significantly reduced numbers of lung infecting bacteria

B1: ZBIA3H: antibody produced by hybridoma NITE BP-1366; heavy and light chain variable regions SEQ ID NOs: 15 and 16 (antibody, listed as Mus musculus, V domains shown)
VH: EVQLVESGGGLVQPKGSLKLSCAASGFTFNTYAMNWVRQAPGKGLEWVARIRSKSNNYATYYADSVKDRFTISRDDSQSMLYLQMNSLKTEDTAMYYCVRRGGNAIYYAMDYWGQGTSVTVSS
VL: QIVLTQSPAIMSASPGEKVTMTCSANSSVSYMHWYQQKSGTSPKAWIYDTSKLASGVPARFSGSGSGTSYSLTISSMEAEDAATYYCQQWSSNPPTFGSGTKLEIK
binding affinity to Staphylococcus aureus (ELISA reactivity, grouped by added concentration and reactivity) [2]: moderate level of binding affinity | number of lung infecting bacteria (therapeutic) [1]: significantly reduced numbers of lung infecting bacteria | life-prolonging effect (number of surviving mice) [3]: significant life-prolonging effects | number of lung infecting bacteria (preventive) [4]: significantly reduced numbers of lung infecting bacteria | life-prolonging effect (number of surviving mice) [5]: significant life-prolonging effects

B2: ZBIA5H: antibody produced by hybridoma NITE BP-1367; heavy and light chain variable regions SEQ ID NOs: 7 and 8 (antibody, listed as Mus musculus, V domains shown)
VH: QIQLVQSGPELKKPGETVKISCKASGYTFTDYSMHWVKQAPGKGLKWMGWINTETGEPTYADDFKGRFAFSLETSASTAYLQINNLKNEDTATYFCARPYYAMDYWGQGTSVTVSS
VL: DIQMTQSPSSLSASLGGKVTITCKASQDINKYIAWYQHKPGKGPRLLIHYTSTLQPGIPSRFSGSGSGRDYSFSISNLEPEDIATYYCLQYDNLLPWTFGGGTKLEIK
binding affinity to Staphylococcus aureus (ELISA reactivity, grouped by added concentration and reactivity) [2]: moderate level of binding affinity | number of lung infecting bacteria (therapeutic) [1]: significantly reduced numbers of lung infecting bacteria | life-prolonging effect (number of surviving mice) [3]: significant life-prolonging effects | number of lung infecting bacteria (preventive) [4]: significantly reduced numbers of lung infecting bacteria | life-prolonging effect (number of surviving mice) [5]: significant life-prolonging effects

B3: ZBIA9H: anti-Staphylococcus monoclonal antibody; CDRs SEQ ID NOs: 17-22, variable regions SEQ ID NOs: 23 and 24 (antibody, listed as Mus musculus, V domains shown)
VH: EVQLVESGGGLVQPKGSLKLSCAASGFTFNTYAMNWVRQAPGKGLEWVARIRSKSNNYATYYADSVKDRFTIFRDDSQSILYLQLNNLKTEDTAMYYCVRRGGNPYYAMDYWGQGTSVTVSS
VL: QIVLSQSPAILSASPGEKVTMTCRASSSVSYMHWYQQKPGSSPKPWIYATSNLASGVPGRFSGSGSGTSYSLTISRVEAEDAATYYCQQWSSNPPTFGGGTKLEIK
binding affinity to Staphylococcus aureus (ELISA reactivity, grouped by added concentration and reactivity) [2]: moderate level of binding affinity

From US9809645B2, “Anti-Staphylococcus antibody, method for manufacturing same, and usage of same” (priority 2013, dated 2017)
